# Reference: the supplement of paper PMC9112550, “Optimization of the antimicrobial peptide Bac7 by deep mutational scanning” (BMC Biology, 2022)
# Tested on: Escherichia coli TOP10
# Experiment: shrunken log2 fold change of peptide-encoding DNA abundance (4.5 h post-induction vs induction); higher = less antimicrobial activity (less host growth inhibition)
# Conditions: time post-induction: 4.5 h; library: site-saturation at positions 5, 18, 19, 20
# 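Note: peptides expressed intracellularly from a pBAD plasmid library in pooled LB shake-flask culture, induced with 0.3% L-arabinose, DNA abundance read by NGS, three biological replicates, DESeq2 with apeglm shrinkage.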
sequence,measurement,value
RRIRFRPPRLPRPRPRPRVHPRP,shrunken log2 fold change,-0.0984
RRIRCRPPRLPRPRPRPKYFPRP,shrunken log2 fold change,-0.501
RRIRPRPPRLPRPRPRPITPPRP,shrunken log2 fold change,0.0216
RRIRYRPPRLPRPRPRPMGPPRP,shrunken log2 fold change,-0.121
RRIRCRPPRLPRPRPRPIGKPRP,shrunken log2 fold change,-0.188
RRIRYRPPRLPRPRPRPVMSPRP,shrunken log2 fold change,-0.233
RRIRERPPRLPRPRPRPQGQPRP,shrunken log2 fold change,-0.0238
RRIRSRPPRLPRPRPRPEGDPRP,shrunken log2 fold change,0.203
RRIRFRPPRLPRPRPRPTALPRP,shrunken log2 fold change,0.0145
RRIRFRPPRLPRPRPRPGYMPRP,shrunken log2 fold change,-0.922
RRIRGRPPRLPRPRPRPSSWPRP,shrunken log2 fold change,1.05
RRIRRRPPRLPRPRPRPRAHPRP,shrunken log2 fold change,0.592
RRIRQRPPRLPRPRPRPHLFPRP,shrunken log2 fold change,0.0199
RRIRARPPRLPRPRPRPCVWPRP,shrunken log2 fold change,0.544
RRIRCRPPRLPRPRPRPPFKPRP,shrunken log2 fold change,0.313
RRIRGRPPRLPRPRPRPPREPRP,shrunken log2 fold change,1.3
RRIRHRPPRLPRPRPRPAQYPRP,shrunken log2 fold change,-0.0609
RRIRERPPRLPRPRPRPPVRPRP,shrunken log2 fold change,0.538
RRIRYRPPRLPRPRPRPVFQPRP,shrunken log2 fold change,-0.503
RRIRTRPPRLPRPRPRPQTNPRP,shrunken log2 fold change,-0.199
RRIRHRPPRLPRPRPRPEVTPRP,shrunken log2 fold change,0.05
RRIRRRPPRLPRPRPRPWLHPRP,shrunken log2 fold change,0.333
RRIRFRPPRLPRPRPRPSPYPRP,shrunken log2 fold change,-0.481
RRIRGRPPRLPRPRPRPQDGPRP,shrunken log2 fold change,0.0108
RRIRVRPPRLPRPRPRPDGKPRP,shrunken log2 fold change,-0.0236
RRIRDRPPRLPRPRPRPQGGPRP,shrunken log2 fold change,-0.17
RRIRSRPPRLPRPRPRPFCAPRP,shrunken log2 fold change,0.0376
RRIRNRPPRLPRPRPRPSTLPRP,shrunken log2 fold change,-0.474
RRIRVRPPRLPRPRPRPQARPRP,shrunken log2 fold change,-0.109
RRIRQRPPRLPRPRPRPVYAPRP,shrunken log2 fold change,0.16
RRIRCRPPRLPRPRPRPGQQPRP,shrunken log2 fold change,0.0269
RRIRFRPPRLPRPRPRPEYTPRP,shrunken log2 fold change,-0.0548
RRIRRRPPRLPRPRPRPEDTPRP,shrunken log2 fold change,0.0364
RRIRERPPRLPRPRPRPGFYPRP,shrunken log2 fold change,0.057
RRIRCRPPRLPRPRPRPAVSPRP,shrunken log2 fold change,-0.345
RRIRYRPPRLPRPRPRPSHFPRP,shrunken log2 fold change,-0.411
RRIRNRPPRLPRPRPRPCPHPRP,shrunken log2 fold change,-0.01
RRIRPRPPRLPRPRPRPIQQPRP,shrunken log2 fold change,0.000308
RRIRKRPPRLPRPRPRPPLEPRP,shrunken log2 fold change,0.456
RRIRCRPPRLPRPRPRPDKCPRP,shrunken log2 fold change,-0.325
RRIRQRPPRLPRPRPRPFFEPRP,shrunken log2 fold change,0.0893
RRIRRRPPRLPRPRPRPMSGPRP,shrunken log2 fold change,0.0609
RRIRDRPPRLPRPRPRPIMKPRP,shrunken log2 fold change,-0.195
RRIRMRPPRLPRPRPRPPWHPRP,shrunken log2 fold change,0.438
RRIRYRPPRLPRPRPRPPADPRP,shrunken log2 fold change,0.115
RRIRDRPPRLPRPRPRPCVCPRP,shrunken log2 fold change,-0.0348
RRIRYRPPRLPRPRPRPVSWPRP,shrunken log2 fold change,0.106
RRIRQRPPRLPRPRPRPIKGPRP,shrunken log2 fold change,-0.0145
RRIRKRPPRLPRPRPRPSGQPRP,shrunken log2 fold change,0.244
RRIRDRPPRLPRPRPRPDSSPRP,shrunken log2 fold change,0.109
RRIRSRPPRLPRPRPRPGWEPRP,shrunken log2 fold change,-0.0365
RRIRHRPPRLPRPRPRPPMFPRP,shrunken log2 fold change,-0.214
RRIRLRPPRLPRPRPRPPWFPRP,shrunken log2 fold change,0.165
RRIRQRPPRLPRPRPRPMLDPRP,shrunken log2 fold change,-0.206
RRIRLRPPRLPRPRPRPIEEPRP,shrunken log2 fold change,0.0311
RRIRHRPPRLPRPRPRPDRMPRP,shrunken log2 fold change,-0.093
RRIRWRPPRLPRPRPRPDDPPRP,shrunken log2 fold change,-0.0101
RRIRDRPPRLPRPRPRPVINPRP,shrunken log2 fold change,-0.0846
RRIRSRPPRLPRPRPRPTKKPRP,shrunken log2 fold change,0.0472
RRIRGRPPRLPRPRPRPDKRPRP,shrunken log2 fold change,0.767
RRIRTRPPRLPRPRPRPQTGPRP,shrunken log2 fold change,-0.128
RRIRKRPPRLPRPRPRPPYAPRP,shrunken log2 fold change,0.424
RRIRNRPPRLPRPRPRPRNIPRP,shrunken log2 fold change,-0.168
RRIRSRPPRLPRPRPRPMHIPRP,shrunken log2 fold change,-0.283
RRIRMRPPRLPRPRPRPIVKPRP,shrunken log2 fold change,0.0312
RRIRVRPPRLPRPRPRPHFTPRP,shrunken log2 fold change,-0.253
RRIRERPPRLPRPRPRPQPVPRP,shrunken log2 fold change,-0.13
RRIRIRPPRLPRPRPRPPFLPRP,shrunken log2 fold change,-0.0978
RRIRNRPPRLPRPRPRPKDKPRP,shrunken log2 fold change,-0.112
RRIRQRPPRLPRPRPRPCGNPRP,shrunken log2 fold change,0.0751
RRIRQRPPRLPRPRPRPMTNPRP,shrunken log2 fold change,-0.0671
RRIRTRPPRLPRPRPRPVFDPRP,shrunken log2 fold change,-0.226
RRIRFRPPRLPRPRPRPDDEPRP,shrunken log2 fold change,0.066
RRIRWRPPRLPRPRPRPYYFPRP,shrunken log2 fold change,-0.692
RRIRYRPPRLPRPRPRPQPPPRP,shrunken log2 fold change,0.163
RRIRDRPPRLPRPRPRPPPPPRP,shrunken log2 fold change,0.899
RRIRPRPPRLPRPRPRPYAEPRP,shrunken log2 fold change,-0.377
RRIRTRPPRLPRPRPRPITFPRP,shrunken log2 fold change,-0.108
RRIRPRPPRLPRPRPRPEGLPRP,shrunken log2 fold change,0.491
RRIRPRPPRLPRPRPRPTLQPRP,shrunken log2 fold change,0.353
RRIRTRPPRLPRPRPRPNQAPRP,shrunken log2 fold change,0.00454
RRIRDRPPRLPRPRPRPLETPRP,shrunken log2 fold change,0.73
RRIRFRPPRLPRPRPRPRCWPRP,shrunken log2 fold change,0.309
RRIRYRPPRLPRPRPRPQQIPRP,shrunken log2 fold change,-0.142
RRIRHRPPRLPRPRPRPFKEPRP,shrunken log2 fold change,-0.289
RRIRWRPPRLPRPRPRPNHTPRP,shrunken log2 fold change,-0.323
RRIRIRPPRLPRPRPRPCCHPRP,shrunken log2 fold change,-0.486
RRIRKRPPRLPRPRPRPLMYPRP,shrunken log2 fold change,-0.0706
RRIRWRPPRLPRPRPRPLIQPRP,shrunken log2 fold change,0.279
RRIRGRPPRLPRPRPRPRFHPRP,shrunken log2 fold change,0.0803
RRIRFRPPRLPRPRPRPACTPRP,shrunken log2 fold change,-0.148
RRIRERPPRLPRPRPRPCFCPRP,shrunken log2 fold change,-0.318
RRIRSRPPRLPRPRPRPHYFPRP,shrunken log2 fold change,-0.51
RRIRGRPPRLPRPRPRPTMMPRP,shrunken log2 fold change,0.541
RRIRDRPPRLPRPRPRPEFIPRP,shrunken log2 fold change,0.163
RRIRDRPPRLPRPRPRPWIAPRP,shrunken log2 fold change,-0.117
RRIRERPPRLPRPRPRPFCTPRP,shrunken log2 fold change,-0.304
RRIRYRPPRLPRPRPRPVANPRP,shrunken log2 fold change,-0.0575
RRIRPRPPRLPRPRPRPPVPPRP,shrunken log2 fold change,0.564
RRIRERPPRLPRPRPRPMFIPRP,shrunken log2 fold change,-0.256
RRIRTRPPRLPRPRPRPWQRPRP,shrunken log2 fold change,0.157
RRIRVRPPRLPRPRPRPFHMPRP,shrunken log2 fold change,-0.54
RRIRTRPPRLPRPRPRPELRPRP,shrunken log2 fold change,0.225
RRIRMRPPRLPRPRPRPERVPRP,shrunken log2 fold change,2.69
RRIRERPPRLPRPRPRPIHHPRP,shrunken log2 fold change,-0.7
RRIRYRPPRLPRPRPRPTGAPRP,shrunken log2 fold change,0.136
RRIRWRPPRLPRPRPRPGPGPRP,shrunken log2 fold change,0.899
RRIRSRPPRLPRPRPRPLWAPRP,shrunken log2 fold change,0.206
RRIRVRPPRLPRPRPRPSGKPRP,shrunken log2 fold change,0.0575
RRIRARPPRLPRPRPRPLPMPRP,shrunken log2 fold change,0.306
RRIRTRPPRLPRPRPRPTSFPRP,shrunken log2 fold change,0.0555
RRIRKRPPRLPRPRPRPHHDPRP,shrunken log2 fold change,-0.121
RRIRFRPPRLPRPRPRPLYPPRP,shrunken log2 fold change,-0.205
RRIRARPPRLPRPRPRPQFIPRP,shrunken log2 fold change,-0.382
RRIRHRPPRLPRPRPRPEHTPRP,shrunken log2 fold change,-0.328
RRIRYRPPRLPRPRPRPFGLPRP,shrunken log2 fold change,-0.282
RRIRPRPPRLPRPRPRPQGMPRP,shrunken log2 fold change,-0.279
RRIRQRPPRLPRPRPRPMSFPRP,shrunken log2 fold change,0.0381
RRIRARPPRLPRPRPRPFRRPRP,shrunken log2 fold change,-0.0278
RRIRTRPPRLPRPRPRPMCPPRP,shrunken log2 fold change,-0.017
RRIRDRPPRLPRPRPRPFFIPRP,shrunken log2 fold change,-0.191
RRIRERPPRLPRPRPRPRDYPRP,shrunken log2 fold change,-0.521
RRIRVRPPRLPRPRPRPMSIPRP,shrunken log2 fold change,-0.306
RRIRLRPPRLPRPRPRPRIDPRP,shrunken log2 fold change,-0.0317
RRIRDRPPRLPRPRPRPGIPPRP,shrunken log2 fold change,0.016
